# Test results as given in US20210261685A1 (Alector, published 2021).
# T1: murine MerTK extracellular domain (ECD), recombinant (mouse, UniProt Q60805 19-497)
# T1 construct: also called moMerTK; mouse MerTK; not shown: polyHis tag or TEVS/Thrombin/murine IgG2a Fc tag
# T1 sequence: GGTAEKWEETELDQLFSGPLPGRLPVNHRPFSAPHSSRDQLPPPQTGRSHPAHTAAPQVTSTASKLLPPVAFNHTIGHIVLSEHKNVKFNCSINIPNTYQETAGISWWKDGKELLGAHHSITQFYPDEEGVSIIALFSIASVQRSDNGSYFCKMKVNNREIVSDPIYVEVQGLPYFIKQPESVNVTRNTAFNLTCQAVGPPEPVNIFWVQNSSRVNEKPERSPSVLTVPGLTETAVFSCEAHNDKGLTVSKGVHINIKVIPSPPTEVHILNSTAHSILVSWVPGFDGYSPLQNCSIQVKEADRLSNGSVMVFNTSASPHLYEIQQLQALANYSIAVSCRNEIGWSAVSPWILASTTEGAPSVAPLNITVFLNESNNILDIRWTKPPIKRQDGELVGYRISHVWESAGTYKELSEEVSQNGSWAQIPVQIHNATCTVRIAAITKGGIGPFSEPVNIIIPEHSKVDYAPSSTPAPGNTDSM
# T2: human MerTK extracellular domain (ECD), recombinant (human, UniProt Q12866 21-505)
# T2 construct: also called huMerTK; not shown: polyHis tag or TEVS/Thrombin/murine IgG2a Fc tag
# T2 sequence: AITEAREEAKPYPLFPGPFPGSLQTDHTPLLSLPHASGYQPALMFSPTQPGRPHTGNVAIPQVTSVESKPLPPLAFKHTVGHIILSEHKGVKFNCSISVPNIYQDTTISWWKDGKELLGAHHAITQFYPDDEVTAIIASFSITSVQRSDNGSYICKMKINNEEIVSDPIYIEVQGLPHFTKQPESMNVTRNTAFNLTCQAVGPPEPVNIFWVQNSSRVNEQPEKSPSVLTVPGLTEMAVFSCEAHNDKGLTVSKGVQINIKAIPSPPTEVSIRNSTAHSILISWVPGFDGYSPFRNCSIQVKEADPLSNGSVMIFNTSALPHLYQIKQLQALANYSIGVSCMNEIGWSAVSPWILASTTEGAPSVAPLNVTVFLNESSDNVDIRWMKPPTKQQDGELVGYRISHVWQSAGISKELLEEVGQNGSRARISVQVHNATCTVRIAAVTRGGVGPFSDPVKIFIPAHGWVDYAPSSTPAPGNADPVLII
# T3: cyno MerTK extracellular domain (ECD), recombinant (cynomolgus monkey, UniProt Q12866 21-505 (human entry))
# T3 construct: also called cynomolgus MerTK; not shown: polyHis tag or TEVS/Thrombin/murine IgG2a Fc tag
# T3 chain: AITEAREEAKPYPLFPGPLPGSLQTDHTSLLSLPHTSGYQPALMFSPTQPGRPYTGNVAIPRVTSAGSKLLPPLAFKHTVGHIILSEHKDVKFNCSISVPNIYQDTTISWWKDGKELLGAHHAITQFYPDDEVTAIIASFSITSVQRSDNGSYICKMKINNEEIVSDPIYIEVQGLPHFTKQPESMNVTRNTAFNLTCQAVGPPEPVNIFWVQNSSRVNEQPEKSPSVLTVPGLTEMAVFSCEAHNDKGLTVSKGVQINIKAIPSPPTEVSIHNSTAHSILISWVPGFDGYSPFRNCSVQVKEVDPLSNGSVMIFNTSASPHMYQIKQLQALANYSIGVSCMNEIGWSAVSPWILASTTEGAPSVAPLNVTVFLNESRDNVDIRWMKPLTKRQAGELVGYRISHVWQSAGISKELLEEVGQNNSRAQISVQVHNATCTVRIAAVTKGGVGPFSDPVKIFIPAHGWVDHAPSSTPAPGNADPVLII
# How the values were obtained:
# Experiment in all cases: SPR, Carterra LSA, antibody immobilised
# [1] = molecular target: T1, murine MerTK extracellular domain …
# Description: (§1) Binding kinetics of humanized and affinity-matured anti-MerTK antibodies of the present disclosure to human, murine, and cynomolgus MerTK proteins were evaluated as follows. Briefly, anti-MerTK antibodies were prepared by diluting to 10 μg/ml in 10 mM Acetate, pH 4.25 (Carterra, Salt Lake City, Utah), at 300 μl/well. A HC200M sensor chip (Carterra) was activated using the single channel flow cell with a 7-minute injection of a 1:1:1 mixture of 100 mM MES pH 5.5, 100 mM sulfo-NHS, 400 mM EDC (all reconstituted in MES pH 5.5; 100 μl of each mixed in vial immediately before running assay). After switching to the multi-channel array flow cell, the antibodies were injected over the activated chip in a 96-spot array for 15 minutes. The remaining unconjugated active groups on the chip were then blocked by injecting 1M Ethanolamine pH 8.5 (Carterra) for 7 minutes using the single channel flow cell.
# (§2) Estimates of affinity were generated by injecting each analyte over the entire antibody array using the single channel flow cell. MerTK analytes were diluted to 33.3, 100, and 300 nM in running buffer, and injected in serial from lowest to highest concentration without regeneration. Two buffer blanks were run between each series (one species per series). Data were processed and analyzed using NextGenKIT high-throughput kinetics analysis software (Carterra). In these experiments, the anti-MerTK antibodies were human IgG1 isotype containing the Fc variant LALAPS.
# (§3) The equilibrium dissociation constants (KD) were then calculated from the fitted association and dissociation rate constants (k-on and k-off) for anti-MerTK antibodies of the present disclosure.
# [2] = molecular target: T2, human MerTK extracellular domain (ECD), …
# Description: as §1, §2, §3
# [3] = molecular target: T3, cyno MerTK extracellular domain (ECD), …
# Description: as §1, §2, §3
binding result [1],Kd [2],Kd [3],Kd [1],Binder
no binding (tested: 300 nM),21.5 nM,23 nM,,"MTK-15.3 (antibody, human IgG1, V domains shown) VH: QVQLVQSGSELKKPGASVKVSCKASGYTFTNYGVHWVRQAPGQGLEWMGWINTYTGEPTYAQGFTGRFVFSLDTSVSTAYLQISSLKAEDTAVYYCARGNRYAYMDYWGQGTLVTVSS VL: EIVLTQSPATLSLSPGERATLSCRASSHVSYMHWYQQKPGQAPRPLIYATSNLASGIPARFSGSGSGTSYTLTISSLEPEDFAVYYCQQWSSNPRTFGGGTKVEIK"
,17.5 nM,18 nM,114 nM,"MTK-15.12 (antibody, human IgG1, V domains shown) VH: QVQLVQSGSELKKPGASVKVSCKASGYTFANYGVHWVRQAPGQGLEWMGWINTYQGEPTYAQGFTGRFVFSLDTSVSTAYLQISSLKAEDTAVYYCARGVRYAYMDYWGQGTLVTVSS VL: EIVLTQSPATLSLSPGERATLSCRASSSVGYMHWYQQKPGQAPRPLIYATSNLASGIPARFSGSGSGTSYTLTISSPEPEDFAVYYCQQWSSNPRTFGGGTKVEIK"
,2.3 nM,2.8 nM,130 nM,"MTK-15.13 (antibody, human IgG1, V domains shown) VH: QVQLVQSGSELKKPGASVKVSCKASGYTFTNYGVHWVRQAPGQGLEWMGWINTYTGEPTYAQGFTGRFVFSLDTSVSTAYLQISSLKAEDTAVYYCARGNRYAYEDYWGQGTLVTVSS VL: EIVLTQSPATLSLSPGERATLSCRASSSVQYMHWYQQKPGQAPRPLIYATSNLASGIPARFSGSGSGTSYTLTISSLEPEDFAVYYCQQWSSNPRTFGGGTKVEIK"
no binding (tested: 300 nM),4.9 nM,5 nM,,"MTK-15.8 (antibody, human IgG1, V domains shown) VH: QVQLVQSGSELKKPGASVKVSCKASGYTFTNYGVHWVRQAPGQGLEWMGWINTYTGEPTYAQGFTGRFVFSLDTSVSTAYLQISSLKAEDTAVYYCARGVRYAYMDYWGQGTLVTVSS VL: EIVLTQSPATLSLSPGERATLSCRASSSVGYMHWYQQKPGQAPRPLIYATSNLASGIPARFSGSGSGTSYTLTISSPEPEDFAVYYCQQWSSNPRTFGGGTKVEIK"
no binding (tested: 300 nM),21.5 nM,21.5 nM,,"MTK-15.2 (antibody, human IgG1, V domains shown) VH: QVQLVQSGSELKKPGASVKVSCKASGYTFTNYGVHWVRQAPGQGLEWMGWGNTYTGEPTYAQGFTGRFVFSLDTSVSTAYLQISSLKAEDTAVYYCARGNRYAYMDYWGQGTLVTVSS VL: EIVLTQSPATLSLSPGERATLSCRASSSVSYMHWYQQKPGQAPRPLIYATSNLASGIPARFSGSGSGTSYTLTISSLEPEDFAVYYCQQWSSNPRTFGGGTKVEIK"

# Further lines, the binder ahead of its results:
Binder,binding result [1],Kd [2],Kd [3],Kd [1]
"MTK-15.4 (antibody, human IgG1, V domains shown) VH: QVQLVQSGSELKKPGASVKVSCKASGYTFTNYGVHWVRQAPGQGLEWMGWINTYTGEPTYAQGFTGRFVFSLDTSVSTAYLQISSLKAEDTAVYYCARGNRYAYMDYWGQGTLVTVSS VL: EIVLTQSPATLSLSPGERATLSCRASSSVGYMHWYQQKPGQAPRPLIYATSNLASGIPARFSGSGSGTSYTLTISSLEPEDFAVYYCQQWSSNPRTFGGGTKVEIK",no binding (tested: 300 nM),,,
"MTK-15.10 (antibody, human IgG1, V domains shown) VH: QVQLVQSGSELKKPGASVKVSCKASGYTFANYGVHWVRQAPGQGLEWMGWINTYQGEPTYAQGFTGRFVFSLDTSVSTAYLQISSLKAEDTAVYYCTRGARYAYMDYWGQGTLVTVSS VL: EIVLTQSPATLSLSPGERATLSCRASSSVGYMHWYQQKPGQAPRPLIYATSNLASGIPARFSGSGSGTSYTLTISSLEPEDFAVYYCQQWSSNPRTFGGGTKVEIK",,3.3 nM,3.3 nM,2800 nM
"MTK-15.1 (antibody, human IgG1, V domains shown) VH: QVQLVQSGSELKKPGASVKVSCKASGYTFTNYGVHWVRQAPGQGLEWMGWINTYTGEPTYAQGFTGRFVFSLDTSVSTAYLQISSLKAEDTAVYYCARGNRYAYQDYWGQGTLVTVSS VL: EIVLTQSPATLSLSPGERATLSCRASSSVSYMHWYQQKPGQAPRPLIYATSNLASGIPARFSGSGSGTSYTLTISSLEPEDFAVYYCQQWSSNPRTFGGGTKVEIK",,8.3 nM,8 nM,
"MTK-15.7 (antibody, human IgG1, V domains shown) VH: QVQLVQSGSELKKPGASVKVSCKASGYTFTNYGVHWVRQAPGQGLEWMGWINTYTGEPTYAQGFTGRFVFSLDTSVSTAYLQISSLKAEDTAVYYCVRGNRYAYMDYWGQGTLVTVSS VL: EIVLTQSPATLSLSPGERATLSCRASSGVSYMHWYQQKPGQAPRPLIYATSNLASGIPARFSGSGSGTSYTLTISSLEPEDFAVYYCQQWSSNPRTFGGGTKVEIK",,0.1 nM,0.3 nM,705 nM
"MTK-15.6 (antibody, human IgG1, V domains shown) VH: QVQLVQSGSELKKPGASVKVSCKASGYTFTNYGVHWVRQAPGQGLEWMGWINTYTGEPYYAQGFTGRFVFSLDTSVSTAYLQISSLKAEDTAVYYCARGNRYAYMDYWGQGTLVTVSS VL: EIVLTQSPATLSLSPGERATLSCRASSSVGYMHWYQQKPGQAPRPLIYATSNLASGIPARFSGSGSGTSYTLTISSLEPEDFAVYYCQQWSSNPRTFGGGTKVEIK",,1 nM,1.5 nM,
"MTK-15.11 (antibody, human IgG1, V domains shown) VH: QVQLVQSGSELKKPGASVKVSCKASGYTFANYGVHWVRQAPGQGLEWMGWINTYEGEPTYAQGFTGRFVFSLDTSVSTAYLQISSLKAEDTAVYYCARGNRYAYQDYWGQGTLVTVSS VL: EIVLTQSPATLSLSPGERATLSCRASSSVSYMHWYQQKPGQAPRPLIYATSNLASGIPARFSGSGSGTSYTLTISSLEPEDFAVYYCQQWSSNPRTFGGGTKVEIK",,12.5 nM,12.5 nM,140 nM
"MTK-15.5 (antibody, human IgG1, V domains shown) VH: QVQLVQSGSELKKPGASVKVSCKASGYTFTNYGVHWVRQAPGQGLEWMGWINTYTGEPTYAQGFTGRFVFSLDTSVSTAYLQISSLKAEDTAVYYCTRGTRYAYMDYWGQGTLVTVSS VL: EIVLTQSPATLSLSPGERATLSCRASSSVGYMHWYQQKPGQAPRPLIYATSNLASGIPARFSGSGSGTSYTLTISSLEPEDFAVYYCQQWSSNPRTFGGGTKVEIK",,0.1 nM,0.8 nM,690 nM
"MTK-15.9 (antibody, human IgG1, V domains shown) VH: QVQLVQSGSELKKPGASVKVSCKASGYTFTNYGVHWVRQAPGQGLEWMGWINTYTGEPTYAQGFTGRFVFSLDTSVSTAYLQISSLKAEDTAVYYCARGYRYAYMDYWGQGTLVTVSS VL: EIVLTQSPATLSLSPGERATLSCRASSSTSYMHWYQQKPGQAPRPLIYATSNLASGIPARFSGSGSGTSYTLTISSLEPEDFAVYYCQQWSSNPRTFGGGTKVEIK",,10 nM,11.5 nM,850 nM
